Experimental data published in WO2005044853A2 (dated 2005).
Values belong to the molecule of their own block, whether it stands above or below them.

Experiments:
murine VEGF (mouse) [1] = biological target: murine VEGF (mouse) (UniProt Q00731); assay: 25C; given as unpublished results
murine VEGF (mouse) [2] = biological target: murine VEGF (mouse) (UniProt Q00731); assay: BIAcore or solution binding ELISA, Fab, measured as control in the same assays
murine VEGF-D = biological target: T1, murine VEGF-D (mouse, UniProt P97946 98-206, limits assumed); assay: direct ELISA on homolog-coated wells (2ug/ml), increasing G6 Fab
T1 construct: also called mVEGF-D
T1 sequence (looked up): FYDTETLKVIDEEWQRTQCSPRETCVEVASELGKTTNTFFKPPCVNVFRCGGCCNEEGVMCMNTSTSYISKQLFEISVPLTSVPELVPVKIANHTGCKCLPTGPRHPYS

[3] = biological target: T2, mouse placenta growth factor (PlGF-2) (mouse, UniProt P49764 24-158, limits assumed); assay: as above
T2 construct: also called murine P1GF-2
T2 sequence (looked up): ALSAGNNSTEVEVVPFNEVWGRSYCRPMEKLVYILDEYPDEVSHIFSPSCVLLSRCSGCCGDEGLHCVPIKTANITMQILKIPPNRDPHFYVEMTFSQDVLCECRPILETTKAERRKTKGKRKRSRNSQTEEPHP

[4] = biological target: T3, human placenta growth factor (PlGF-2) (human, UniProt P49763-3 19-170, limits assumed); assay: as above
T3 construct: also called human P1GF-2
T3 sequence (looked up): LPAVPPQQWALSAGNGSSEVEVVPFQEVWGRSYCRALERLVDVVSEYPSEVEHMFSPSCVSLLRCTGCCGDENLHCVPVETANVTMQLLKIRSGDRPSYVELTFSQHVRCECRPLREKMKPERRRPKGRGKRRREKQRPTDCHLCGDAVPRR

human VEGF-B = biological target: T4, human VEGF-B (human, UniProt P49765-2 22-188, limits assumed); assay: as above
T4 sequence (looked up): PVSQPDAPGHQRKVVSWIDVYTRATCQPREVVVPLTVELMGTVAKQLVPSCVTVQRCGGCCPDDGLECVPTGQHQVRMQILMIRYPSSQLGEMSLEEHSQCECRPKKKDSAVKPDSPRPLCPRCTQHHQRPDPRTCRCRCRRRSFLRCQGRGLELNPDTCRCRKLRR

Sequence of murine VEGF (mouse) (Q00731 other isoform, or with tags, fused parts or gaps limits assumed): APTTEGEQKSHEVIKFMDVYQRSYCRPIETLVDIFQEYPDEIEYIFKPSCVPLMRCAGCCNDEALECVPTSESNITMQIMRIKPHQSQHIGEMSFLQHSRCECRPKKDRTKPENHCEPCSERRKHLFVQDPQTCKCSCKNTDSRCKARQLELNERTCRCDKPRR

Kd (murine VEGF (mouse) [1]): 300 nM
affinity (murine VEGF (mouse) [2]): 350 nM
Molecule: Y0317 Fab

binding result (murine VEGF-D): no binding
binding result [3]: no binding
binding result [4]: no binding
binding result (human VEGF-B): no binding
B1: G6 Fab (Fab, V domains shown)
VH: EVQLVESGGGLVQPGGSLRLSCAASGFTISDYWIHWVRQAPGKGLEWVAGITPAGGYTYYADSVKGRFTISADTSKNTAYLQMNSLRAEDTAVYYCARFVFFLPYAMDYWGQGTLVTVSS
VL: DIQMTQSPSSLSASVGDRVTITCRASQDVSTAVAWYQQKPGKAPKLLIYSASFLYSGVPSRFSGSGSGTDFTLTISSLQPEDFATYYCQQSYTTPPTFGQGTKVEIKR
notes: also called G6 antibody; G6 clone
